In patent US20010010923A1, “MODIFIED CARBOXYPEPTIDASE” (priority 1997, published 2001):

How the values were obtained:
[1] = Transpeptidation of Bz-G-A-R-A-R-X-OH at pH 6.5 at 50% substrate consumption, Table 5; assay type: biochemical; set-up: key to fa: fa = aminolysis product / sum of all products formed; conditions: for Pmax (peak product yield) / fa: 750 mM H-Leu-NH2; for fa / t: 50% substrate consumption; for t: 750 mM H-Leu-NH2, 2 mM substrate, [E] 0.1 mg/mL
Experimental: Transamidation reactions were carried out generally as described in PCT Application WO 95/20039. In general, the method included dissolving the nucleophile (H-Leu-NH2, unless otherwise indicated) in 50 mM HEPES, […], 5 μl of peptide substrate (8 mM Bz-G-A-R-A-R-A-OH, unless otherwise indicated, in methanol) was added to 190 μl nucleophile solution followed by 5 μl enzyme, resulting in a substrate concentration of 0.2 mM.
(§1) During the reaction, 20 μl aliquots were removed from the reaction mixture and added to 50 μl 1% trifluoroacetic acid to quench the reaction. The reactant composition was determined by HPLC using a Waters HPLC equipped with a C-18 Waters Novapac 4μ reverse phase column and various gradients of acetonitrile in 0.1% trifluoroacetic acid. The separation was monitored at 254 nm allowing the direct quantification of the products from the integrated peak areas. The composition of the reaction mixture was determined at least twvice during the reaction, the first when 20-50% (preferably 35%) of the substrate had been consumed in the reaction and the second time when 50-90% (preferably 80%) of the peptide substrate had been consumed.
The fraction of aminolysis (fa) was expressed as the ratio between the formed aminolysis product and the sum of all products formed. Unconsumed substrate was disregarded in the calculations. […]

[2] = Transpeptidation of Bz-G-A-R-A-R-X-OH at pH 7.5 at 50% substrate consumption, Table 4; assay type: biochemical; set-up: key to fa: fraction: aminolysis product / sum of all products formed; conditions: for fa / t: 50% substrate consumption; for t: 375 mM H-Leu-NH2, 2 mM substrate, [E] 0.1 mg/mL
Experimental: Transamidation reactions were carried out generally as described in PCT Application WO 95/20039. In general, the method included dissolving the nucleophile (H-Leu-NH2, unless otherwise indicated) in 50 mM HEPES, 5 mM EDTA and adjusting the pH to 7.5, 5 μl of peptide substrate (8 mM Bz-G-A-R-A-R-A-OH, unless otherwise indicated, in methanol) was added to 190 μl nucleophile solution followed by 5 μl enzyme, resulting in a substrate concentration of 0.2 mM.
as §1
The fraction of aminolysis (fa) was expressed as the ratio between the formed aminolysis product and the sum of all products formed. Unconsumed substrate was disregarded in the calculations.
Site specific mutagenesis was performed as described for Example 1 to generate the specific mutants described below. Transamidation reactions were performed as described for Examples 1.

[3] = leaving group A, 375 mM H-Leu-NH2
[4] = leaving group I, 375 mM H-Leu-NH2
[5] = leaving group L, 375 mM H-Leu-NH2
[6] = leaving group M, 375 mM H-Leu-NH2
[7] = leaving group V, 375 mM H-Leu-NH2

| Molecule | Pmax (peak product yield) ([1]; leaving group A) | fa ([1]; leaving group A) | t ([1]; leaving group A) [min] | Pmax (peak product yield) ([1]; leaving group L) | fa ([1]; leaving group L) | t ([1]; leaving group L) [min] | fraction of aminolysis for leucine as a leaving group, in words [2] | Pmax (peak product yield) [2, 3] | fa [2, 3] | t ([2]; leaving group A) [min] | fa [2, 4] | t ([2]; leaving group I) [min] | Pmax (peak product yield) [2, 5] | Pmax (peak product yield) ([2]; leaving group L, 375 mM H-Leu-NH2, listed as N51Q+L178S+M398L) | fa [2, 5] | t ([2]; leaving group L) [min] | fa [2, 6] | t ([2]; leaving group M) [min] | fa [2, 7] | t ([2]; leaving group V) [min] |
| --- | --- | --- | --- | --- | --- | --- | --- | --- | --- | --- | --- | --- | --- | --- | --- | --- | --- | --- | --- | --- |
| N51Q + L178S + M398L: carboxypeptidase Y mutant N51Q + L178S + M398L (protein, UniProt P00729 112-532, looked up, variant N51Q L178S M398L) Carboxypeptidase Y: KIKDPKILGIDPNVTQYTGYLDVEDEDKHFFFWTFESRNDPAKDPVILWLQGGPGCSSLTGLFFELGPSSIGPDLKPIGNPYSWNSNATVIFLDQPVNVGFSYSGSSGVSNTVAAGKDVYNFLELFFDQFPEYVNKGQDFHIAGESYAGHYIPVFASEILSHKDRNFNLTSVLIGNGSTDPLTQYNYYEPMACGEGGEPSVLPSEECSAMEDSLERCLGLIESCYDSQSVWSCVPATIYCNNAQLAPYQRTGRNVYDIRKDCEGGNLCYPTLQDIDDYLNQDYVKEAVGAEVDHYESCNFDINRNFLFAGDWMKPYHTAVTDLLNQDLPILVYAGDKDFICNWLGNKAWTDVLPWKYDEEFASQKVRNWTASITDEVAGEVKSYKHFTYLRVFNGGHLVPFDVPENALSMVNEWIHGGFSL | 0.70 | 0.91 | 194 | 0.80 | 0.84 | 36 | improved | >0.67 | 0.87 | 24 | 0.82 | 129 | >0.73 | 0.73 | 0.76 | 52 | 0.75 | 84 | 0.82 | 168 |
| N51Q + L178S: carboxypeptidase Y mutant N51Q + L178S (S1' and S1 subsites) (protein, UniProt P00729 112-532, looked up, variant N51Q L178S) Carboxypeptidase Y: KIKDPKILGIDPNVTQYTGYLDVEDEDKHFFFWTFESRNDPAKDPVILWLQGGPGCSSLTGLFFELGPSSIGPDLKPIGNPYSWNSNATVIFLDQPVNVGFSYSGSSGVSNTVAAGKDVYNFLELFFDQFPEYVNKGQDFHIAGESYAGHYIPVFASEILSHKDRNFNLTSVLIGNGSTDPLTQYNYYEPMACGEGGEPSVLPSEECSAMEDSLERCLGLIESCYDSQSVWSCVPATIYCNNAQLAPYQRTGRNVYDIRKDCEGGNLCYPTLQDIDDYLNQDYVKEAVGAEVDHYESCNFDINRNFLFAGDWMKPYHTAVTDLLNQDLPILVYAGDKDFICNWLGNKAWTDVLPWKYDEEFASQKVRNWTASITDEVAGEVKSYKHFTYLRVFNGGHMVPFDVPENALSMVNEWIHGGFSL | 0.78 | 0.87 | 31 | 0.26 | 0.28 | 19 |  | 0.60 | 0.72 | 34 | 0.62 | 211 | 0.18 |  | 0.20 | 23 | 0.51 | 211 | 0.62 | 194 |
